Data on two molecules can be found in paper PMC3339974 (The Journal of Biological Chemistry, 2012).

The target in test [1] is soluble mouse CD3ϵ ectodomain homodimer (mouse) (UniProt P22646).
For test [2], the target named is T1, soluble mouse CD3ϵ ectodomain homodimer (Mus musculus (strain )).
T1 chain: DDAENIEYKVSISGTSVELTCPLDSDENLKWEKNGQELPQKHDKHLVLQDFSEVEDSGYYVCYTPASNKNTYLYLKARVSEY
Description: crystal structure.

Broadly, the stoichiometry N is the number of molecules, sites or subunits per partner or assembly. Turning to “soluble mouse CD3ϵ ectodomain homodimer (from UniProt P22646 23-108) (domain or fragment)”, the stoichiometry N in test [1] amounted to 2.

B1: 2C11 Fab (Fab, V domains shown)
VH: EVQLVESGGGLVQPGKSLKLSCEASGFTFSGYGMHWVRQAPGRGLESVAYITSSSINIKYADAVKGRFTVSRDNAKNLLFLQMNILKSEDTAMYYCARFDWDKNYWGQGTMVTVSS
VL: DIQMTQSPSSLPASLGDRVTINCQASQDISNYLNWYQQKPGKAPKLLIYYTNKLADGVPSRFSGSGSGRDSSFTISSLESEDIGSYYCQQYYNYPWTFGPGTKLEIK
As to B1, in test [2], the binding result is on record as “binds”.
